In article PMC12808100 (2025) one finds Kd data, which are given here for six molecules.

The target of assay [1] is HA-MBP-POLE2 (human, UniProt P56282 1-527). The assay is described as follows: nHU in cell extract, apparent Kd, f = 0.37.
For assay [2], the target named is HA-POLE2 (human, UniProt P56282 1-527). The assay is described as follows: nHU, apparent Kd, f = 0.82.
Assay [3] deals with His6-AviTag-MBP-TEV-POLE2 (human, UniProt P56282 1-527, biotin on the AviTag (BirA co-expressed, biotin in the medium)). Kind of assay: nHU, apparent Kd.
Assay [4] deals with catalytic subunit of DNA polymerase ε (POLE), endogenous (human (endogenous in Jurkat and in …, UniProt Q07864 1-2286)). Kind of assay: nHU, apparent Kd.

*: point of attachment. Biotin = O=C1N[C@H]2[C@H](CS[C@H]2CCCCC(=O)*)N1; TTDS = Trioxatridecan-succinamic acid linker

His6-AviTag-MBP-TEV-POLE2, sequence (P56282 whole entry): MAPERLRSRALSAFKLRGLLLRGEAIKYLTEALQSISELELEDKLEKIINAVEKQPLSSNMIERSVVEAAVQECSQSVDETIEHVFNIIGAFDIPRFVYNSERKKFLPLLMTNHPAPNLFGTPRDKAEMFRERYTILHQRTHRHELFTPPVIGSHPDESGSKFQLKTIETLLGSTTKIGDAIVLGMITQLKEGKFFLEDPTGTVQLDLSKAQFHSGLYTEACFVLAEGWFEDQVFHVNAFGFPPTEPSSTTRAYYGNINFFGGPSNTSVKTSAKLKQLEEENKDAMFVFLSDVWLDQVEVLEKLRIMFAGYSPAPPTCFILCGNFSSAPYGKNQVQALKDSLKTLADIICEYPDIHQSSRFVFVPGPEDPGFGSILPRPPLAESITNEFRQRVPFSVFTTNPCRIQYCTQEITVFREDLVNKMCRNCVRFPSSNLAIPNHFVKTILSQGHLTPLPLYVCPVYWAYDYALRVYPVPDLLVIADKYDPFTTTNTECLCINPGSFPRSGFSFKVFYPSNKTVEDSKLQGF
catalytic subunit of DNA polymerase ε (POLE), endogenous (human, sequence (Q07864 whole entry): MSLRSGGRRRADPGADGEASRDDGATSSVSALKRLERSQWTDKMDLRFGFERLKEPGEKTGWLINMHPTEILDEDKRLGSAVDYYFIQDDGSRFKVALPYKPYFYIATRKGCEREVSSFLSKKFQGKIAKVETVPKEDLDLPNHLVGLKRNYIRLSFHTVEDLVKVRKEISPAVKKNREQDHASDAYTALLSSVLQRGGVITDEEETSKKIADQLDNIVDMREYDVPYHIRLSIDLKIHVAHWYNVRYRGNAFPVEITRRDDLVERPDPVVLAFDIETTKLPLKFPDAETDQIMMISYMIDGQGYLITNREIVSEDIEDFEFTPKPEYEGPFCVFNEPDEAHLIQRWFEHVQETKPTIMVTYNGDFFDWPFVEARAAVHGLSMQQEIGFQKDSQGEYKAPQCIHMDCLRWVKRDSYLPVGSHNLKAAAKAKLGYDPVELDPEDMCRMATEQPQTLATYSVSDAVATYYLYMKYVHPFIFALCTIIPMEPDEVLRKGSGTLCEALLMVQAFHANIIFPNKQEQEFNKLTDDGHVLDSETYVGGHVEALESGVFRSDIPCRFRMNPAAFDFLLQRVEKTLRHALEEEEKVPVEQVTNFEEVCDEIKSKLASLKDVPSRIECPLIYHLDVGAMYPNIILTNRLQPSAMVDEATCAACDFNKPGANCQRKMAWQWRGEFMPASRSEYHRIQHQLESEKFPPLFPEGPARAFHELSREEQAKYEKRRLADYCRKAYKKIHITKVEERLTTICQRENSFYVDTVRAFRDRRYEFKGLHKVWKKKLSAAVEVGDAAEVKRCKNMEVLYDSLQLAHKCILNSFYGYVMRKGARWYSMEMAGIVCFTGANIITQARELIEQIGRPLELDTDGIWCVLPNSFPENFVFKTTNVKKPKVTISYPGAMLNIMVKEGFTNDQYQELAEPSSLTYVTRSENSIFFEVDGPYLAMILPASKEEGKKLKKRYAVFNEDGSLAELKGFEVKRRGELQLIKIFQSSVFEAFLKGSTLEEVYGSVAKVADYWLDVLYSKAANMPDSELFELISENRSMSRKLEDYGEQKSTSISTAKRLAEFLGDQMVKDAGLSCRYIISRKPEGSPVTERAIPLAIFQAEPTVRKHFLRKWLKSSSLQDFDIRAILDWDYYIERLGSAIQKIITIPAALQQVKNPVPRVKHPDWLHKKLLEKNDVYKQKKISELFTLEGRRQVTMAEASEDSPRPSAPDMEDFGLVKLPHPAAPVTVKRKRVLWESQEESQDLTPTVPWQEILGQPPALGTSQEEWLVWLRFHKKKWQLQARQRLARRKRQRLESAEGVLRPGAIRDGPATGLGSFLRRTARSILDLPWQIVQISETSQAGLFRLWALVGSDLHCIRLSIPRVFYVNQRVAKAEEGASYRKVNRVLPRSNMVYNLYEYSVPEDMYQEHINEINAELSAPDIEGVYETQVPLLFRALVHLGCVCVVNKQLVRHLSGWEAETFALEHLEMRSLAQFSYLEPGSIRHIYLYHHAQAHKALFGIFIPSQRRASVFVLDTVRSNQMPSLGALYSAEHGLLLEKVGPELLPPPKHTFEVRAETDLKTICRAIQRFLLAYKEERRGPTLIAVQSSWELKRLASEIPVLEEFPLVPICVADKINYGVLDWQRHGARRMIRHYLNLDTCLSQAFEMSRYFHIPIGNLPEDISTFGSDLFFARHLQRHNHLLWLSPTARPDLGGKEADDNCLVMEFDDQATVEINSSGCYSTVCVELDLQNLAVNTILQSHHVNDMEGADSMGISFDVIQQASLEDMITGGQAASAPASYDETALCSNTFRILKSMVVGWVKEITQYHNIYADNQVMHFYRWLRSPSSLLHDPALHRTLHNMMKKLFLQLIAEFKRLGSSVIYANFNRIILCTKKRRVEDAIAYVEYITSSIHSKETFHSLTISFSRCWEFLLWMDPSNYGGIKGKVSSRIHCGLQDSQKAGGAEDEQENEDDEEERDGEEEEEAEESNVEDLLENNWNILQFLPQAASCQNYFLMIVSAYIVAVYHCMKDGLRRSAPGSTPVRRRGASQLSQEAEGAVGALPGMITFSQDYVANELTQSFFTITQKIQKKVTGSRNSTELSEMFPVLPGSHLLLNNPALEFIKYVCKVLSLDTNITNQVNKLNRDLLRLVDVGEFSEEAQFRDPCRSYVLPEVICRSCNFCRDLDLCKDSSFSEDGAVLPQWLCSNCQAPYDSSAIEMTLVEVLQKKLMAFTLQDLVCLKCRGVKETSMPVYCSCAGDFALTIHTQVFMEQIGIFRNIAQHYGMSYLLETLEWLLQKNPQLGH
HA-POLE2, sequence (P56282 whole entry): as the sequence (P56282 whole entry) above
HA-MBP-POLE2, sequence (P56282 whole entry): as above

B1: NPF motif peptide of DONSON (residues 71-88) (peptide)
peptide: {Biotin-TTDS}-GPAAARRNPFARLDNRPR-NH2
As for B1, the values for the Kd in assay [1] and in assay [2] were 1300 nM and 520 nM, respectively.

B2: HA-WDHD1, full length, intact NPF motif (natural protein)
chain: MPATRKPMRYGHTEGHTEVCFDDSGSFIVTCGSDGDVRIWEDLDDDDPKFINVGEKAYSCALKSGKLVTAVSNNTIQVHTFPEGVPDGILTRFTTNANHVVFNGDGTKIAAGSSDFLVKIVDVMDSSQQKTFRGHDAPVLSLSFDPKDIFLASASCDGSVRVWQISDQTCAISWPLLQKCNDVINAKSICRLAWQPKSGKLLAIPVEKSVKLYRRESWSHQFDLSDNFISQTLNIVTWSPCGQYLAAGSINGLIIVWNVETKDCMERVKHEKGYAICGLAWHPTCGRISYTDAEGNLGLLENVCDPSGKTSSSKVSSRVEKDYNDLFDGDDMSNAGDFLNDNAVEIPSFSKGIINDDEDDEDLMMASGRPRQRSHILEDDENSVDISMLKTGSSLLKEEEEDGQEGSIHNLPLVTSQRPFYDGPMPTPRQKPFQSGSTPLHLTHRFMVWNSIGIIRCYNDEQDNAIDVEFHDTSIHHATHLSNTLNYTIADLSHEAILLACESTDELASKLHCLHFSSWDSSKEWIIDLPQNEDIEAICLGQGWAAAATSALLLRLFTIGGVQKEVFSLAGPVVSMAGHGEQLFIVYHRGTGFDGDQCLGVQLLELGKKKKQILHGDPLPLTRKSYLAWIGFSAEGTPCYVDSEGIVRMLNRGLGNTWTPICNTREHCKGKSDHYWVVGIHENPQQLRCIPCKGSRFPPTLPRPAVAILSFKLPYCQIATEKGQMEEQFWRSVIFHNHLDYLAKNGYEYEESTKNQATKEQQELLMKMLALSCKLEREFRCVELADLMTQNAVNLAIKYASRSRKLILAQKLSELAVEKAAELTATQVEEEEEEEDFRKKLNAGYSNTATEWSQPRFRNQVEEDAEDSGEADDEEKPEIHKPGQNSFSKSTNSSDVSAKSGAVTFSSQGRVNPFKVSASSKEPAMSMNSARSTNILDNMGKSSKKSTALSRTTNNEKSPIIKPLIPKPKPKQASAASYFQKRNSQTNKTEEVKEENLKNVLSETPAICPPQNTENQRPKTGFQMWLEENRSNILSDNPDFSDEADIIKEGMIRFRVLSTEERKVWANKAKGETASEGTEAKKRKRVVDESDETENQEEKAKENLNLSKKQKPLDFSTNQKLSAFAFKQE
For the molecule B2, the Kd in assay [3] worked out at 70 nM.

B3: HA-TTF2, full length, intact NPF motifs (natural protein)
chain: MEEVRCPEHGTFCFLKTGVRDGPNKGKSFYVCRADTCSFVRATDIPVSHCLLHEDFVVELQGLLLPQDKKEYRLFFRCIRSKAEGKRWCGSIPWQDPDSKEHSVSNKSQHASETFHHSSNWLRNPFKVLDKNQEPALWKQLIKGEGEEKKADKKQREKGDQLFDQKKEQKPEMMEKDLSSGLVPKKKQSVVQEKKQEEGAEIQCEAETGGTHKRDFSEIKSQQCQGNELTRPSASSQEKSSGKSQDVQRESEPLREKVTQLLPQNVHSHNSISKPQKGGPLNKEYTNWEAKETKAKDGPSIQATQKSLPQGHFQERPETHSVPAPGGPAAQAAPAAPGLSLGEGREAATSSDDEEEDDVVFVSSKPGSPLLFDSTLDLETKENLQFPDRSVQRKVSPASGVSKKVEPSDPVARRVYLTTQLKQKKSTLASVNIQALPDKGQKLIKQIQELEEVLSGLTLSPEQGTNEKSNSQVPQQSHFTKTTTGPPHLVPPQPLPRRGTQPVGSLELKSACQVTAGGSSQCYRGHTNQDHVHAVWKITSEAIGQLHRSLESCPGETVVAEDPAGLKVPLLLHQKQALAWLLWRESQKPQGGILADDMGLGKTLTMIALILTQKNQEKKEEKEKSTALTWLSKDDSCDFTSHGTLIICPASLIHHWKNEVEKRVNSNKLRVYLYHGPNRDSRARVLSTYDIVITTYSLVAKEIPTNKQEAEIPGANLNVEGTSTPLLRIAWARIILDEAHNVKNPRVQTSIAVCKLQACARWAVTGTPIQNNLLDMYSLLKFLRCSPFDEFNLWRSQVDNGSKKGGERLSILTKSLLLRRTKDQLDSTGRPLVILPQRKFQLHHLKLSEDEETVYNVFFARSRSALQSYLKRHESRGNQSGRSPNNPFSRVALEFGSEEPRHSEAADSPRSSTVHILSQLLRLRQCCCHLSLLKSALDPMELKGEGLVLSLEEQLSALTLSELRDSEPSSTVSLNGTFFKMELFEGMRESTKISSLLAELEAIQRNSASQKSVIVSQWTNMLKVVALHLKKHGLTYATIDGSVNPKQRMDLVEAFNHSRGPQVMLISLLAGGVGLNLTGGNHLFLLDMHWNPSLEDQACDRIYRVGQQKDVVIHRFVCEGTVEEKILQLQEKKKDLAKQVLSGSGESVTKLTLADLRVLFGI
For B3, the Kd in assay [3] was found to be 300 nM.

B4: NPF motif peptide of WDHD1 (residues 906-924) (peptide)
peptide: SSQGRVNPFKVSASSKEPA
HELM: PEPTIDE1{[O=C1N[C@H]2[C@H](CS[C@H]2CCCCC(=O)[*:2])N1].[O=C(CCCCCN[*:1])[*:2]].S.S.Q.G.R.V.N.P.F.K.V.S.A.S.S.K.E.P.A.[am]}$$$$V2.0
SMILES: CC(C)[C@H](NC(=O)[C@H](CCCCN)NC(=O)[C@H](Cc1ccccc1)NC(=O)[C@@H]1CCCN1C(=O)[C@H](CC(N)=O)NC(=O)[C@@H](NC(=O)[C@H](CCCNC(=N)N)NC(=O)CNC(=O)[C@H](CCC(N)=O)NC(=O)[C@H](CO)NC(=O)[C@H](CO)NC(=O)CCCCCNC(=O)CCCC[C@@H]1SC[C@@H]2NC(=O)N[C@@H]21)C(C)C)C(=O)N[C@@H](CO)C(=O)N[C@@H](C)C(=O)N[C@@H](CO)C(=O)N[C@@H](CO)C(=O)N[C@@H](CCCCN)C(=O)N[C@@H](CCC(=O)O)C(=O)N1CCC[C@H]1C(=O)N[C@@H](C)C(N)=O
Turning to B4, the Kd in assay [4] turned out to be 14 µM.

B5: HA-ERCC6L, full length, intact NPF motif (natural protein)
chain: MEASRRFPEAEALSPEQAAHYLRYVKEAKEATKNGDLEEAFKLFNLAKDIFPNEKVLSRIQKIQEALEELAEQGDDEFTDVCNSGLLLYRELHNQLFEHQKEGIAFLYSLYRDGRKGGILADDMGLGKTVQIIAFLSGMFDASLVNHVLLIMPTNLINTWVKEFIKWTPGMRVKTFHGPSKDERTRNLNRIQQRNGVIITTYQMLINNWQQLSSFRGQEFVWDYVILDEAHKIKTSSTKSAICARAIPASNRLLLTGTPIQNNLQELWSLFDFACQGSLLGTLKTFKMEYENPITRAREKDATPGEKALGFKISENLMAIIKPYFLRRTKEDVQKKKSSNPEARLNEKNPDVDAICEMPSLSRKNDLIIWIRLVPLQEEIYRKFVSLDHIKELLMETRSPLAELGVLKKLCDHPRLLSARACCLLNLGTFSAQDGNEGEDSPDVDHIDQVTDDTLMEESGKMIFLMDLLKRLRDEGHQTLVFSQSRQILNIIERLLKNRHFKTLRIDGTVTHLLEREKRINLFQQNKDYSVFLLTTQVGGVGLTLTAATRVVIFDPSWNPATDAQAVDRVYRIGQKENVVVYRLITCGTVEEKIYRRQVFKDSLIRQTTGEKKNPFRYFSKQELRELFTIEDLQNSVTQLQLQSLHAAQRKSDIKLDEHIAYLQSLGIAGISDHDLMYTCDLSVKEELDVVEESHYIQQRVQKAQFLVEFESQNKEFLMEQQRTRNEGAWLREPVFPSSTKKKCPKLNKPQPQPSPLLSTHHTQEEDISSKMASVVIDDLPKEGEKQDLSSIKVNVTTLQDGKGTGSADSIATLPKGFGSVEELCTNSSLGMEKSFATKNEAVQKETLQEGPKQEALQEDPLESFNYVLSKSTKADIGPNLDQLKDDEILRHCNPWPIISITNESQNAESNVSIIEIADDLSASHSALQDAQASEAKLEEEPSASSPQYACDFNLFLEDSADNRQNFSSQSLEHVEKENSLCGSAPNSRAGFVHSKTCLSWEFSEKDDEPEEVVVKAKIRSKARRIVSDGEDEDDSFKDTSSINPFNTSLFQFSSVKQFDASTPKNDISPPGRFFSSQIPSSVNKSMNSRRSLASRRSLINMVLDHVEDMEERLDDSSEAKGPEDYPEEGVEESSGEASKYTEEDPSGETLSSENKSSWLMTSKPSALAQETSLGAPEPLSGEQLVGSPQDKAAEATNDYETLVKRGKELKECGKIQEALNCLVKALDIKSADPEVMLLTLSLYKQLNNN
Take B5: the Kd in assay [3] was determined as 2400 nM.

B6: NPF motif peptide of TTF2 (residues 116-143) (peptide)
peptide: HHSSNWLRNPFKVLDKNQEPALWKQLIK
HELM: PEPTIDE1{[O=C1N[C@H]2[C@H](CS[C@H]2CCCCC(=O)[*:2])N1].[O=C(CCCCCN[*:1])[*:2]].H.H.S.S.N.W.L.R.N.P.F.K.V.L.D.K.N.Q.E.P.A.L.W.K.Q.L.I.K.[am]}$$$$V2.0
SMILES: CC[C@H](C)[C@H](NC(=O)[C@H](CC(C)C)NC(=O)[C@H](CCC(N)=O)NC(=O)[C@H](CCCCN)NC(=O)[C@H](Cc1c[nH]c2ccccc12)NC(=O)[C@H](CC(C)C)NC(=O)[C@H](C)NC(=O)[C@@H]1CCCN1C(=O)[C@H](CCC(=O)O)NC(=O)[C@H](CCC(N)=O)NC(=O)[C@H](CC(N)=O)NC(=O)[C@H](CCCCN)NC(=O)[C@H](CC(=O)O)NC(=O)[C@H](CC(C)C)NC(=O)[C@@H](NC(=O)[C@H](CCCCN)NC(=O)[C@H](Cc1ccccc1)NC(=O)[C@@H]1CCCN1C(=O)[C@H](CC(N)=O)NC(=O)[C@H](CCCNC(=N)N)NC(=O)[C@H](CC(C)C)NC(=O)[C@H](Cc1c[nH]c2ccccc12)NC(=O)[C@H](CC(N)=O)NC(=O)[C@H](CO)NC(=O)[C@H](CO)NC(=O)[C@H](Cc1c[nH]cn1)NC(=O)[C@H](Cc1c[nH]cn1)NC(=O)CCCCCNC(=O)CCCC[C@@H]1SC[C@@H]2NC(=O)N[C@@H]21)C(C)C)C(=O)N[C@@H](CCCCN)C(N)=O
In the case of B6, the Kd in assay [4] amounted to 0.72 µM.
